The values that follow come from PMC13193136.

This data set deals with SOX2 DNA-binding domain (human). Put plainly: PIC-NIC microarray. To be noted: Protein-specific binding buffers (Supplementary Methods, not in the material), PBM incubation 1 h at room temperature, hybridization simulated at 150 mM Na+ ….

On to SOX2 site intact, for which the binding signal (fold (reference)) was 1. SOX2 site nick 3, 5'P retained: for the setting “nick at position 3, 5' phosphate”, the binding signal (fold signal vs intact duplex) is 3.
